# Results as given in article PMC11092803, “Heme allocation in eukaryotic cells relies on mitochondrial heme export through FLVCR1b to cytosolic GAPDH” (Research Square, 2024).
# T1: Feline Leukemia Virus subgroup C Receptor 1b (FLVCR1b) (human (endogenous in HEK293T), UniProt Q9Y5Y0-2 1-279)
# T1 construct: FLVCR1 isoform b, the mitochondrially targeted version of FLVCR1a that is missing the first six transmembrane helices; endogenous in human HEK293T cells, detected or precipitated with an anti-FLVCR antibody (Novus NB100-1481); The antibody is named as against human FLVCR / FLVCR1; also called Feline leukemia virus subgroup C receptor 1 isoform b; source: endogenous, HEK293T cells; endogenous, …
# T1 sequence (looked up): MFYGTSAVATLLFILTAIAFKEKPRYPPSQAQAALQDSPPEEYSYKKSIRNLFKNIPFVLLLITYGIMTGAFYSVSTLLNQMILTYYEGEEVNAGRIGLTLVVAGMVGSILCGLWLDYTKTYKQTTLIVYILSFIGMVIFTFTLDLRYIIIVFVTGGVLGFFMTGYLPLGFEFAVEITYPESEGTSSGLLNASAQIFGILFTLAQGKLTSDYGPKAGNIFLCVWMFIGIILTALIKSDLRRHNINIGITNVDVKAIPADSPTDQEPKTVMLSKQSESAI
# T2: FLVCR1b in isolated mouse mitochondria (mouse (endogenous in brain and liver …, UniProt B2RXV4-2 1-279))
# T2 construct: Detected with the antibody named as against FLVCR1 (Novus NB100-1481); also called mitochondrial FLVCR1b; source: endogenous, mitochondria isolated from mouse brain and liver
# T2 sequence (looked up): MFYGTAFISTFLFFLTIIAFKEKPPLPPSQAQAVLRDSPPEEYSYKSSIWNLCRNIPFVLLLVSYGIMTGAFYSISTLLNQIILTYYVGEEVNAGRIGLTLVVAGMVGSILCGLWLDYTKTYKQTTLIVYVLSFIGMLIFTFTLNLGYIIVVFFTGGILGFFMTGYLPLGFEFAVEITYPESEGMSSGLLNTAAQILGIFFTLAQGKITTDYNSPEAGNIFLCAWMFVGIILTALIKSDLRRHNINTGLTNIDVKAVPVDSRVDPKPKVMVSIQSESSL
# B1: glyceraldehyde phosphate dehydrogenase (GAPDH) (natural protein)
# chain: not shown
# notes: Glyceraldehyde 3-phosphate dehydrogenase, endogenous in the human HEK293T cell line, detected with an anti-GAPDH antibody; In the experiments on isolated mouse mitochondria the GAPDH came with HEK293T cytosol, but mouse GAPDH that stayed on the mitochondria cannot be ruled out; also called Glyceraldehyde 3-phosphate dehydrogenase; source: endogenous, HEK293T cells; endogenous, solubilised HEK293T …
# B2: Transport and Golgi Organization 2 (TANGO2) protein (natural protein, human (endogenous in HEK293T), UniProt Q6ICL3 1-276, looked up)
# chain: MCIIFFKFDPRPVSKNAYRLILAANRDEFYSRPSKLADFWGNNNEILSGLDMEEGKEGGTWLGISTRGKLAALTNYLQPQLDWQARGRGELVTHFLTTDVDSLSYLKKVSMEGHLYNGFNLIAADLSTAKGDVICYYGNRGEPDPIVLTPGTYGLSNALLETPWRKLCFGKQLFLEAVERSQALPKDVLIASLLDVLNNEEAQLPDPAIEDQGGEYVQPMLSKYAAVCVRCPGYGTRTNTIILVDADGHVTFTERSMMDKDLSHWETRTYEFTLQS
# notes: TANGO2, endogenous in human HEK293T cells, detected with an anti-TANGO2 antibody (Invitrogen PA5-51818); also called Transport and Golgi organization 2 homolog; T2; source: endogenous, HEK293T cells
# B3: H53A point mutant variant of HA-hGAPDH (natural protein)
# chain: not shown
# notes: human GAPDH with H53A, expressed from the H53A variant of pRK5-TC-hGAPDH-HA; also called H53A HA-GAPDH; HA-H53A; source: HEK293T, transfected (H53A variant of pRK5-TC-hGAPDH-HA), in cells; in solubilised mitochondria
# Columns and labels:
# Details in all cases: partners not purified
# [1] = target: T1, Feline Leukemia Virus subgroup C …; assay: proximity ligation; Duolink PLA on fixed, permeabilised heme-depleted HEK293T cells, pairs of primary antibodies to the endogenous proteins; 0, 15, 30, 45, 60 and 120 min after δ-ALA (1 mM) and ferric citrate (100 μM); also in cells with control siRNA or knock-down of TANGO2 or GAPDH; background = one primary antibody alone, set to 1.0
# [2] = target: T2, FLVCR1b in isolated mouse mitochondria; assay: proximity ligation; Duolink PLA on mitochondria from mouse brain and liver, before or after incubation with δ-ALA and mitochondria-free HEK293T cytosol (control or TANGO2 knock-down cells) at 37 °C, reisolated and placed on poly-D-lysine coverslips
# [3] = target: B1; assay: proximity ligation; Duolink PLA on fixed, permeabilised heme-depleted HEK293T cells, pairs of primary antibodies to the endogenous proteins; 0, 15, 30, 45, 60 and 120 min after δ-ALA (1 mM) and ferric citrate (100 μM); also in cells with control siRNA or knock-down of TANGO2 or GAPDH; background = one primary antibody alone, set to 1.0
# [4] = target: T1, Feline Leukemia Virus subgroup C …; assay: proximity ligation; Duolink PLA on HEK293T cells transfected with HA-tagged GAPDH wild type or H53A, antibodies to HA and FLVCR1; resting and at times after δ-ALA/Fe; background = one primary antibody alone
Binder,"PLA signal over background, resting cells [1] [fold over background]",fold increase of PLA signal 30 min after δ-ALA/Fe [1] [fold],fold increase of PLA signal after 30 min with δ-ALA and cytosol [2] [fold],PLA signal over background [3] [fold over background],"PLA signal over background, resting cells [4] [fold over background]"
B1,2.5,18,4,–,–
B2,5,–,–,2.5,–
B3,–,–,–,–,~2
